Substitutions are numbered along the chain they refer to. In names and notes the source's numbering stands.
T1: His-tagged recombinant Human TIGIT (human, UniProt Q495A1 22-141)
T1 construct: coated antigen of the direct ELISA; not shown: His tag
T1 sequence (looked up): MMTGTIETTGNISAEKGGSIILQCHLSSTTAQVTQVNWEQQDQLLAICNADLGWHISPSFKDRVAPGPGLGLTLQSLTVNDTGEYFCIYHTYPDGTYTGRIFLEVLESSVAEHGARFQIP

T2: biotinylated human TIGIT (human, UniProt Q495A1 22-141, biotinylated (EZ-Link NHS-PEG4-biotin kit))
T2 construct: extracellular domain; also called TIGIT-ECD
T2 sequence (looked up): T1 sequence (looked up)

T3: mouse TIGIT-Fc (mouse, UniProt P86176 29-148)
T3 construct: extracellular domain; also called TIGIT-ECD; not shown: Fc
T3 sequence (looked up): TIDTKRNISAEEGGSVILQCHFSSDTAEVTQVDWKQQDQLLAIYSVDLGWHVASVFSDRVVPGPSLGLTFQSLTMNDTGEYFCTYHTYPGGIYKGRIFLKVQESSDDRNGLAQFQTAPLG

T4: His-tagged recombinant Mouse TIGIT (mouse, UniProt P86176 29-148, limits assumed)
T4 construct: coated antigen of the direct ELISA; not shown: His tag
T4 sequence (looked up): T3 sequence (looked up)

T5: human TIGIT fused to a beta galactosidase portion, on YTS cells (YTS_hTIGIT/hGrb2) (human, UniProt Q495A1 22-244)
T5 sequence (looked up): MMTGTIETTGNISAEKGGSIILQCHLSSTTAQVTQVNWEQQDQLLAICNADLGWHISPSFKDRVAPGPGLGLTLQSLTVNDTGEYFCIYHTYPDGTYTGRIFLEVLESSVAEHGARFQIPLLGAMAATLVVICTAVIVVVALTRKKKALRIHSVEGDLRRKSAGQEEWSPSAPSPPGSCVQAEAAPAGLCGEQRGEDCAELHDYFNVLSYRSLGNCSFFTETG

B1: Ab1i6 (antibody, V domains shown)
VH: EVQLLESGGGLVQPGGSLRLSCAASGFTFSSYAMHWVRQAPGKGLEWVSGISSNGGSTSYADSVKGRFTISRDNSKNTLYLQMNSLRAEDTAVYYCARVAYSVWIDYWGQGTLVTVSS
VL: not shown
notes: mIgG2a of Ab1, P96A
B2: Ab1i11 (antibody, V domains shown)
VH: B1 VH with A100P, W104A
VL: not shown
notes: mIgG2a of Ab1, W100A
B3: Ab1i10 (antibody, V domains shown)
VH: B1 VH with A100P, V103A
VL: not shown
notes: mIgG2a of Ab1, V99A
B4: Ab1i12 (antibody, V domains shown)
VH: B1 VH with A100P, Y101A
VL: not shown
notes: mIgG2a of Ab1, Y97A
B5: Ab40i4 (antibody, V domains shown)
VH: EVQLLESGGGLVQPGGSLRLSCAASGFTFSSYSMNWVRQAPGKGLEWVAGIKSSSGNKYYADSVKGRFTISRDNSKNTLYLQMNSLRAEDTAVYYCARGPYDVWMDYWGQGTLVTVSS
VL: not shown
B6: Ab22i1 (antibody, V domains shown)
VH: B5 VH with N35H, G50S, S55G, N57S, G99V, V103Y
VL: not shown
notes: hIgG1 of Ab22
B7: Ab16i2 (antibody, V domains shown)
VH: B1 VH with A33S, S49A, G50A, S52K, N54S, G56S, A100P, S102D, V103Y, I105L
VL: not shown
B8: Ab53i5 (antibody, V domains shown)
VH: B5 VH with S33G, N35H, G50S, S53Y, G56S, M105L
VL: not shown
B9: Ab40i3 (antibody, V domains shown)
VH: B5 VH with S53Y
VL: not shown
notes: mIgG2a of Ab40, G33S
B10: Ab40 (Fab, V domains shown)
VH: B5 VH with S33G, S53Y
VL: not shown
B11: Ab16i1 (antibody, V domains shown)
VH: B1 VH with A33S, S49A, G50A, S52K, N54S, G56S, A100P, S102D, V103Y, I105L
VL: not shown
B12: Ab1i9 (antibody, V domains shown)
VH: B1 VH with V99A, A100P
VL: not shown
notes: mIgG2a of Ab1, V95A
B13: Ab10i2 (antibody, V domains shown)
VH: B5 VH with G50Y, S54N, N57T, Y59G, V103Y, M105L
VL: not shown
notes: hIgG1 of Ab10
B14: Ab1 (Fab, V domains shown)
VH: B1 VH with A100P
VL: not shown
B15: Ab22i2 (antibody, V domains shown)
VH: B5 VH with N35H, G50S, S55G, N57S, G99V, V103Y
VL: not shown
notes: mIgG2a of Ab22

Assays:
[1] = target: T1, His-tagged recombinant Human TIGIT; experiment: ELISA
Experimental: (§1) Binding affinities for antigen binding to anti-TIGIT monoclonal antibodies were determined by ELISA. […] Antibodies to be tested were diluted to 1 μM in PBS buffer containing 1% BSA and diluted 3-fold in a 10-point curve. […] Detection of the secondary antibody was determined using streptavidin-HRP and TMB reagent. All assays were performed at room temperature. Curve-fitting software was used to determine the EC₅₀ for each antibody.

biotinylated human TIGIT = target: T2, biotinylated human TIGIT; experiment: comp. ELISA vs PVR
Experimental: (§2) Antibodies were serially diluted in a 10-point curve starting at 1 μM in 3-fold steps. […] Units are in microM.

mouse TIGIT-Fc = target: T3, mouse TIGIT-Fc; experiment: comp. ELISA vs PVR
Experimental: as §2

[2] = target: T4, His-tagged recombinant Mouse TIGIT; experiment: ELISA
Experimental: as §1

[3] = target: T5, human TIGIT fused to a beta …; experiment: cell-based or functional assay

Binder	EC50 [1] [nM]	IC50 (biotinylated human TIGIT) [nM]	IC50 (mouse TIGIT-Fc) [nM]	EC50 [2] [nM]	YTS_hTIGI/hGrbs_EFC_Agonism, 221_WT [3] [µM]	YTS_hTIGI/hGrbs_EFC_Antagonism, 221_hPVR/ICAM [3] [µM]
B1	29.4	46.9	> 1000	–	–	–
B2	–	> 1000	> 1000	–	–	–
B3	3.9	5.8	488	15.1	–	–
B4	–	> 1000	> 1000	–	–	–
B5	0.3	3	11.1	2.5	0.0007	1.63
B6	0.7	1.5	0.5	0.3	–	0.16
B7	6.4	84.6	4.1	0.5	–	–
B8	0.2	2.1	> 1000	–	0.0057	0.526
B9	0.2	3.7	> 1000	41	0.08	0.0098
B10	0.3	3.8	> 1000	–	> 1	0.0023
B11	2.1	2.1	0.4	0.5	–	–
B12	0.6	2.3	9	2.3	–	–
B13	0.3	8.5	1.1	0.1	–	0.39
B14	40.3	89.9	632	181	–	–
B15	1.8	38.3	2.6	0.2	> 1	> 1

Reference: patent US20200339678A1 (RIGEL PHARMACEUTICALS, published 2020)
